The target of data set [1] is T1, ZTF-17 (Caenorhabditis elegans, UniProt P45972 1-705).
T1 sequence: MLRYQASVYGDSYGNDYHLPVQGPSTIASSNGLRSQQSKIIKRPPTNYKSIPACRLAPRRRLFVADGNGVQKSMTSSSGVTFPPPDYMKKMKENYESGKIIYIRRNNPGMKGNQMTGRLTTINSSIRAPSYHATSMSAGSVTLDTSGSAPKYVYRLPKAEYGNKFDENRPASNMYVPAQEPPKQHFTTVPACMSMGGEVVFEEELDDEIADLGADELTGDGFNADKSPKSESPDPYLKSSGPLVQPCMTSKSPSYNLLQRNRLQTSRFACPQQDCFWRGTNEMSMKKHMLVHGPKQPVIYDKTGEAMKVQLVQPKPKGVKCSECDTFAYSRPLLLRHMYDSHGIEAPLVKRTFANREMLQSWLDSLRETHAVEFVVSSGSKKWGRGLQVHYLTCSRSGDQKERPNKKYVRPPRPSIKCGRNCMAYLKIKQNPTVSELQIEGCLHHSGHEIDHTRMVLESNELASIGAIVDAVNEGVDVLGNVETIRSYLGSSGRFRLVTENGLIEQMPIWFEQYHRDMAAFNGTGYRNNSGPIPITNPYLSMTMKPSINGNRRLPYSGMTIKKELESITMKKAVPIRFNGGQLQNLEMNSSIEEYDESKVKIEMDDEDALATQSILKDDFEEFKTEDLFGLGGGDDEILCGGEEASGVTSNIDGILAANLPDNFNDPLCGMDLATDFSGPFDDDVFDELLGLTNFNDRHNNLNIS
Briefly: competition; cold competitor vs YF4-2; 50 mM KCl, 20 mM HEPES pH 7.9, 0.2 mM EDTA, 0.5 mM DTT, 3 mM MgCl2, 1 ug poly(dI-dC), 0.5 ug/ul BSA, 0-800 ng protein, 20 ul, 20 min on ice (4 C). The following applies: protein: recombinant; tags: N-terminal 6His (pQE-80L); blunt.

In data set [2] the target is T1, ZTF-17. Description: EMSA; also competes vs YF4-2; 50 mM KCl, 20 mM HEPES pH 7.9, 0.2 mM EDTA, 0.5 mM DTT, 3 mM MgCl2, 1 ug poly(dI-dC), 0.5 ug/ul BSA, 0-800 ng protein, 20 ul, 20 min on ice (4 C). As to conditions: protein: recombinant; tags: N-terminal 6His (pQE-80L); label: 32P (probe); blunt. (A gel shift assay detects complexes by their altered migration in electrophoresis.)

A further data set has as its target ALR-1 (Caenorhabditis elegans, UniProt Q21836 1-362). Briefly: EMSA; self competes; 50 mM KCl, 20 mM HEPES pH 7.9, 0.2 mM EDTA, 0.5 mM DTT, 3 mM MgCl2, 1 ug poly(dI-dC), 0.5 ug/ul BSA, 0-800 ng protein, 20 ul, 20 min on ice (4 C). As to conditions: protein: recombinant; tags: N-terminal 6His (pQE-80L); label: 32P; blunt.
The target of data set [3] is T1, ZTF-17. Briefly: EMSA; 50 mM KCl, 20 mM HEPES pH 7.9, 0.2 mM EDTA, 0.5 mM DTT, 3 mM MgCl2, 1 ug poly(dI-dC), 0.5 ug/ul BSA, 0-800 ng protein, 20 ul, 20 min on ice (4 C). As to conditions: protein: recombinant; tags: N-terminal 6His (pQE-80L); label: 32P; blunt.

Sequence of ALR-1 (Q21836 whole entry): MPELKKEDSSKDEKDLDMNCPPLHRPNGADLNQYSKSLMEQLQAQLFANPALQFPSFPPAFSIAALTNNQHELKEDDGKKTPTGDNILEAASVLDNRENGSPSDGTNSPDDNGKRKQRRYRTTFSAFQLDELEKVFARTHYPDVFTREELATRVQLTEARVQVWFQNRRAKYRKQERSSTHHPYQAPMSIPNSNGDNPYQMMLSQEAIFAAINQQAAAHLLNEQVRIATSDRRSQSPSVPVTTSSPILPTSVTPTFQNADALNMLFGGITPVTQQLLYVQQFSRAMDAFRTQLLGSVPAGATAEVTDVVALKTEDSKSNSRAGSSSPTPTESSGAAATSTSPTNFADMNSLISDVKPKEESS

B1: YF4-3 (dsDNA)
DNA 1: GAGCAAGAGATGTGCTCTCGGCTCCACGAACCTCTTTGATCTATGCCGACAGTGGGGGAGATTGGAGAAGAAGCATGCTCCACCCTTCACGTGTATCAGTACG
DNA 2: CGTACTGATACACGTGAAGGGTGGAGCATGCTTCTTCTCCAATCTCCCCCACTGTCGGCATAGATCAAAGAGGTTCGTGGAGCCGAGAGCACATCTCTTGCTC
With B1, the binding result with ZTF-17 [1] is reported as “no binding”.

B2: YF4-4 (dsDNA)
DNA 1: GCTCCACCCTTCACGTGTATCAGTACGTCTGCGTCTTCTTGTGCGTGCCGCCCGGATTAGAAGACATGAAGTGGGAGGGCGATAGAGGAAATTCCGATGGCAATACCAAC
DNA 2: GTTGGTATTGCCATCGGAATTTCCTCTATCGCCCTCCCACTTCATGTCTTCTAATCCGGGCGGCACGCACAAGAAGACGCAGACGTACTGATACACGTGAAGGGTGGAGC
For B2, the binding result with ZTF-17 [2] is given as “binds”.

B3: ECR2 (dsDNA)
DNA 1: CCCATATGCTTCCTGCTGTGTGTGGCACGAGCGCCAATAA
DNA 2: TTATTGGCGCTCGTGCCACACACAGCAGGAAGCATATGGG
B3: the binding result with ALR-1 is given as “binds”.

B4: YF4-2 (dsDNA)
DNA 1: GAGCAAGAGATGTGCTCTCGGCTCCACGAACCTCTTTGATCTATGCCGACAGTGGGGGAGATTGGAGAAGAAGCATGCTCCACCCTTCACGTGTATCAGTACGTCTGCGTCTTCTTGTGCGTGCCGCCCGGATTAGAAGACATGAAGTGGGAGGGCGATAGAGGAAATTCCGATGGCAATACCAAC
DNA 2: GTTGGTATTGCCATCGGAATTTCCTCTATCGCCCTCCCACTTCATGTCTTCTAATCCGGGCGGCACGCACAAGAAGACGCAGACGTACTGATACACGTGAAGGGTGGAGCATGCTTCTTCTCCAATCTCCCCCACTGTCGGCATAGATCAAAGAGGTTCGTGGAGCCGAGAGCACATCTCTTGCTC
B4: in the data set with ZTF-17 [3], the binding result is on record as “binds”.
